Assay results as given in the nanobody polyreactivity screen of Harvey et al. (2022).

Assay: yeast display, Sf9 membrane polyspecificity reagent, FACS + sequencing; frameworks hold sequencing errors
Procedure, shortened: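 Nanobodies came from a synthetic yeast display library in Saccharomyces cerevisiae BJ5465, induced with galactose for 36–48 hours and stained for 1 hour at 4 °C with 10% biotinylated, detergent-solubilized Sf9 membrane reagent. Cells were enriched on streptavidin microbeads and then FACS-sorted, with low and high (top ~1%) gates set on anti-HA fluorescence for expression and streptavidin fluorescence for reagent binding. Each polyreactivity label reflects the gate a clone came from. Genes were amplified by colony PCR, sequenced by MiSeq 2 × 250 and filtered by CDR length.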

Sequence | polyreactivity (PSR sort gate)
QVQLVESGGGLVQAGGSLRLSCAASGRNFGRNGMGWYRQAPGKERELVAAISIGDSTTYADSVKGRFTISRDNAKNTVYLQMNSLKPEDTAVFYCAAELERYPVWEYRGKYDYWGQGTQVTVSS | low polyreactivity
QVQLVESGGGLVQAGGSLRLSCAASGRNFLPNAMGWSRPAPGKERELVAAITSGGGSTYYADSVKGRFTISRDKAKNTVYLQMNSLKPEDTAVYYCAKQPYRGKYYYWGQGTQVTVSS | high polyreactivity
QVQLVESGGGLVQAGGSLRLSCAASGRNFPGYARGWYRQAPGKEGELVAGINWSSGSTYYADSVKGRFTISRDNAKNTVYLQMNSLKPEDTAVYYCNALGYWRSTVHYVVGEVDYWGQGTQVTVSS | low polyreactivity
QVQLVESGGGLVQAGGSLRLSCAASGRNFPYYAMGWYRQAPGKERELVAAISSSGGRTYYADSVKGRFTISRDNAKNTVYLQMNSLIPEDTAVYYCNVDAWYPYQGFLVGYYYWGQGTQVTVSS | low polyreactivity
QVQLVESGGGLVQAGGSLRLSCAASGRNFRRYALGLYRQAPGKERELVAAISSGGSTYYADSVKGRFTISRDNAKNTVYLQMNSLKPEDTAVYYCNAKVGAYLNYGYWGQGTQVTVSS | low polyreactivity
QVQLVESGGGLVQAGGSLRLSCAASGRNFSFYAMGWYRQAPGQERELVAAITYTDGSTYADSVKGRFTISRDNAKNTVYLQMNSLKPDDTAVYYFATRYRWTPYDYWGQGTQVTVSS | low polyreactivity
QVQLVESGGGLVQAGGSLRLSCAASGRNFSNYAMGWYRQAPGKERELVAAIRATGTTTYYADSVKGRFTISRDNAKNTVYLQMNSLKPDDTAVYYCAARGSRYRSSGYDYWGQGTQVTVSS | high polyreactivity
QVQLVESGGGLVQAGGSLRLSCAASGRNFWLNAMGWYRPEPGKERELVATISRGGSTNYADSVKGRFTISRDNAKNTVYLQMNSLKPEDTAVYYCAARPYSYYWNSELDYWGQGTQVTVSS | high polyreactivity
QVQLVESGGGLVQAGGSLRLSCAASGRNFYGYAMGWYRQAPGKERELVAAISWSGGSTYYADSVKGRFTISRDNAKNTVYLQMNSLKPEDTAVYYCARRYRGGYKYDYWGQGTQVTVSS | high polyreactivity
QVQLVESGGGLVQAGGSLRLSCAASGRNFYSYVMGWYRQAPGKERELVASIRVSGGSTYYADSVKGRFTISRDNAKNTVYLQMNSLKPEDTAVYYCAAGYRSGVSLWRFYAYYWGQGTQVTVSS | high polyreactivity
QVQLVESGGGLVQAGGSLRLSCAASGRNFYYYAMGWYRQAPGKERELVAAISASGGSTYYADSVKGRFTISRDNAKNTVYLQMNSLKPEDTAVYYCAARATTSQYNYYYWGQGTQVTVSS | high polyreactivity
QVQLVESGGGLVQAGGSLRLSCAASGRPFNRNAMGWYRTAPGKERELVASITSRGGSTYYADSVKGRFTISRDNAKNTVYLQMNSLKTEDTAVYYCAGYTRNGDYDYWGQGTQVTFSS | high polyreactivity
QVQLVESGGGLVQAGGSLRLSCAASGRPSSLMNMGWYRQAPGKERELVAAISTSGGSTYYADSVKGRFTISRDNAKNTVYLQMNSLKPEDTAVYYCAATIGRRSYNQMYYWGQGTQVTVSS | high polyreactivity
QVQLVESGGGLVQAGGSLRLSCAASGRSFESYAMGWYRQAPGKERELVAAITWSGGDTYYADSVKGRFTISRDNAKNTVYLQMNSLKPEDTAVYYCAKEQGLYSVSPYDYWGQGTQVTVSS | low polyreactivity
QVQLVESGGGLVQAGGSLRLSCAASGRSFIENVKGWYRQAPGKERELVAAIRSAGTTYNADSVKGRFTISRDNAKNTVYLQMNSLKPEDTAVDYCAATNRYYWSYFYQSKYGYWGQGTQVTVSS | low polyreactivity
QVQLVESGGGLVQAGGSLRLSCAASGRSFPAYAMGWYRQAPGKERELVAAISQSGGSTYYADSVKGRFTISRDNAKNTVYLQMNSLKPEDTAVYYCAAGWYVSYYWYDYWGQGTQVTVSS | high polyreactivity
QVQLVESGGGLVQAGGSLRLSCAASGRSFPTYAMGWYRQAPGKERELVATISWSGGRTYYADSVKGRFTISRDNAKNTVYLLMNSLKPEDTAVYYCNAYISYRWYRWEYEYWGQGTQVTVSS | low polyreactivity
QVQLVESGGGLVQAGGSLRLSCAASGRSFPWYGMGWYRQAPGKERELVAAISRTGGNTYYADSVKGRFTISRDNAKNTVYLQMNSLKPEDTAVYYCIAGYYSNRSYFYDYGYWGQGTQVTVSS | high polyreactivity
QVQLVESGGGLVQAGGSLRLSCAASGRSFQGYAMGWYRKAPGKERELVAAISWSGGSTYYADSVKGRFTISRDNAKNTVYLQMNSLKPEDTAVYYCAASYDIYGNYRRYDYWGQGTQVTVSS | high polyreactivity
QVQLVESGGGLVQAGGSLRLSCAASGRSFRRYAMGWYRQAPVKDRELVATNTSNGGSTYYADSVKGRFTISRDNAMHTVDFQLNSLKPEDTAVYYCARDLTYYRSRYDYWGQGTQVTVSS | high polyreactivity
QVQLVESGGGLVQAGGSLRLSCAASGRSFSKYAMGWYRQAPGKERDLVAGISRSGGSTYYADSVKGRFTISRDNAKNSVYLQMNSLKPEDTAVYYGAAVRRDYDDVYTEYWGQGTQVNVSS | high polyreactivity
QVQLVESGGGLVQAGGSLRLSCAASGRSFSLYAMGWYRQAPGKERELVASITGSSTYYADSVKGRFTISRDNAKNTVYLQMNSLKPEDTAVYYCNARTSAGAGVDYWGQGTQVTVSS | low polyreactivity

Sequence | polyreactivity (PSR sort gate)
QVQLVESGGGLVQAGGSLRLSCAASGRSFSYNAMGWYRQAPGKERELVASISGNGGRTYYADSVKGRFTISRDNAKNTVYLQMNSLKPEDTAVYYCAARYYSWGGVQYDYWGQGTQVTVSS | high polyreactivity
QVQLVESGGGLVQAGGSLRLSCAASGRSFTYYAMGWYRQAPGKERELVATISGSGGSTYYADSVKGRFTISRDNAKNTVYLQMNSLKPEDTAVYYCAATGFIFRGRVRAIPRRYNYWGQGTQVTVSS | high polyreactivity
QVQLVESGGGLVQAGGSLRLSCAASGRSFWAYAMGWYRQETGTERELVADITTSGGSTNYADSVKGRFTISRDNAKNTVYLQMNSLKPEDTAVYYCNADPTYHVVNCVGYWGHGTQVTVSS | low polyreactivity
QVQLVESGGGLVQAGGSLRLSCAASGRSFYNYAMGWYRQAPGKERELVAAISGSGGSTYYADSVKGRFTISRDNAKNSVYLQMNSLKPEDTAVYYCSTSGPQYYSRNFDSWGQGTQVTVSS | low polyreactivity
QVQLVESGGGLVQAGGSLRLSCAASGRSILLNAMGWYRHAPGKERELVAAISRGGSTYYADSVKGRFTISRDNAKYSVYLQMNSLKPEDTAVYYCAARFWISHTHWDAGDYWGQGTQVTVSS | low polyreactivity
QVQLVESGGGLVQAGGSLRLSCAASGRSLYNTMGWYRQAPGKERELVAGINWGGGRTYADSVKGRFTISRDNAKNTVYLQMNSMKPEDTAVYYCAADVNYQSRSHIVDYEYGYWGQGTQVTVSS | low polyreactivity
QVQLVESGGGLVQAGGSLRLSCAASGRTCDIYAMGWYRQAPGKERELVAAISSGGSTYYADSVKGRFTISRDNAKNTVYLQMNSLKPEDTAVYYCAVRWYDQVSRRGIGYYWGQGTLVTVSS | low polyreactivity
QVQLVESGGGLVQAGGSLRLSCAASGRTCGSYAMGWYRQAPGKERELVAAISLSAGSTYYADSVKGRFTISRDNAKNTVYLQMNSLKPEDTAVYYCAAGTQWYSQVYIYYYWGQGTQVTVSS | low polyreactivity
QVQLVESGGGLVQAGGSLRLSCAASGRTCYSNAMGWYRQAPGKERELVAAITRGASTKYADSVKGRFTISRDNAKNTVYLQMNSLKPEDTAVYYCATARYPRYIYDYWGQGTQVTVSS | low polyreactivity
QVQLVESGGGLVQAGGSLRLSCAASGRTFADYAMGWYRQAPGKERELVATIRKSTGTTYYADSVKGRFTISRDNAKNTVYLQMNSLKPEDTAVYYCAAARSRYSRWRVEYWGQGTQVTVSS | high polyreactivity
QVQLVESGGGLVQAGGSLRLSCAASGRTFAENAMGWYRQAPGKESELVAAISETGSRTYYADSVKGRFTISRDNAKNTVYLQMNSLKPEDTAVYYCAARSWHGVLWSYRHDYWGQGTQVTVSS | low polyreactivity
QVQLVESGGGLVQAGGSLRLSCAASGRTFAFNAMGWYRQAPGKERELVATISWSGGSTYYADSVKGRFTISRDNAKNTVYLQMNSLKPEDTAVYYCGAEYVVYRYRLYGTVAYDYWGQGTQVTVSS | high polyreactivity
QVQLVESGGGLVQAGGSLRLSCAASGRTFAFYAMGWYRPAPGKERELVASIRGGGGTNYADSVKGRFTISRDNAKNPVYLQMNSVKPEDTAVYYCAARGYGYRGYYYWGQGTQVTVSS | high polyreactivity
QVQLVESGGGLVQAGGSLRLSCAASGRTFAFYTMGWYRQAPGKEREFVAAISWSGGSTHYADSVKGRFTISRDNAKNTVYLQMNSLKQEDSAVYYCAAGPFYRFTDGRYKTLDYWGQGTQVTVSS | high polyreactivity
QVQLVESGGGLVQAGGSLRLSCAASGRTFAGNAMGWYRQAPGKERELVAAIRRTGGRTYYADSVKGRFTISRDNAKNTVYLQMNSLKPEDTAVYYCNAVNKPYTREYGYDYWGQGTQVTVSS | high polyreactivity
QVQLVESGGGLVQAGGSLRLSCAASGRTFAGNAMGWYRQAPGKERELVAAISWSGGRTYYADSVKGRFTISRDNAKNTVYLQMNSLKPEETAVYYCAAVRASSRFRYGYWGQGTQVTVSS | high polyreactivity
QVQLVESGGGLVQAGGSLRLSCAASGRTFALNALGWSRQAPGKERELVAAISWSSGRTYYADSVKGRFTISRDNAKNTVYLQMNSLKPEDTAVYYCAALVAHKGDYWGQGTQVTVSS | high polyreactivity
QVQLVESGGGLVQAGGSLRLSCAASGRTFALYAMGWYRQAPGKERELVAAITSGGSTNYADSVKGRFTISRDNAKNTVYVQMNSLKPEDTAVYYCNADDSSKDVIGLDYWGQGTQVTVSS | low polyreactivity
QVQLVESGGGLVQAGGSLRLSCAASGRTFANNAMGWYRQAPGKERELVAAISNGDSTYADSVKGRFTISRDNAKNTVYLQMNSLKPEDTAVYYWATRTKEDYTGDYWGQGTQVTVSS | low polyreactivity
QVQLVESGGGLVQAGGSLRLSCAASGRTFAPNAMGRSRQAPGKERELVAAITSIGTRTYYADSVKGRFTISRDNAKNTVYLHKNSLKTEVTAVYYCNKKRNADYDYWGQGTQVTVSS | low polyreactivity
QVQLVESGGGLVQAGGSLRLSCAASGRTFAPYALGWYRQAPRKERELVAAITNGGSTSYADSVKGRFTISRDNAKNTVYLQMNSLKPEDTAVYYCAADANRYHRQRWSPYKMYYWGQGTQVTVSS | low polyreactivity
